From patent EP4775595A1

How the values were obtained:
[1] = biological target: hIGF-1R-ECD-avi-his (human IGF-1R extracellular region) (human) (UniProt P08069); assay: SPR (Biacore T200), antigen captured by anti-His antibody on CM5 chip, antibody as analyte
[2] = biological target: human IGF-1R on human non-small cell lung cancer cells (A549) (human) (UniProt P08069); assay: cell-based or functional assay
human IGF-1R on human non-small cell lung cancer cells (A549) (human), sequence (P08069 31-1367): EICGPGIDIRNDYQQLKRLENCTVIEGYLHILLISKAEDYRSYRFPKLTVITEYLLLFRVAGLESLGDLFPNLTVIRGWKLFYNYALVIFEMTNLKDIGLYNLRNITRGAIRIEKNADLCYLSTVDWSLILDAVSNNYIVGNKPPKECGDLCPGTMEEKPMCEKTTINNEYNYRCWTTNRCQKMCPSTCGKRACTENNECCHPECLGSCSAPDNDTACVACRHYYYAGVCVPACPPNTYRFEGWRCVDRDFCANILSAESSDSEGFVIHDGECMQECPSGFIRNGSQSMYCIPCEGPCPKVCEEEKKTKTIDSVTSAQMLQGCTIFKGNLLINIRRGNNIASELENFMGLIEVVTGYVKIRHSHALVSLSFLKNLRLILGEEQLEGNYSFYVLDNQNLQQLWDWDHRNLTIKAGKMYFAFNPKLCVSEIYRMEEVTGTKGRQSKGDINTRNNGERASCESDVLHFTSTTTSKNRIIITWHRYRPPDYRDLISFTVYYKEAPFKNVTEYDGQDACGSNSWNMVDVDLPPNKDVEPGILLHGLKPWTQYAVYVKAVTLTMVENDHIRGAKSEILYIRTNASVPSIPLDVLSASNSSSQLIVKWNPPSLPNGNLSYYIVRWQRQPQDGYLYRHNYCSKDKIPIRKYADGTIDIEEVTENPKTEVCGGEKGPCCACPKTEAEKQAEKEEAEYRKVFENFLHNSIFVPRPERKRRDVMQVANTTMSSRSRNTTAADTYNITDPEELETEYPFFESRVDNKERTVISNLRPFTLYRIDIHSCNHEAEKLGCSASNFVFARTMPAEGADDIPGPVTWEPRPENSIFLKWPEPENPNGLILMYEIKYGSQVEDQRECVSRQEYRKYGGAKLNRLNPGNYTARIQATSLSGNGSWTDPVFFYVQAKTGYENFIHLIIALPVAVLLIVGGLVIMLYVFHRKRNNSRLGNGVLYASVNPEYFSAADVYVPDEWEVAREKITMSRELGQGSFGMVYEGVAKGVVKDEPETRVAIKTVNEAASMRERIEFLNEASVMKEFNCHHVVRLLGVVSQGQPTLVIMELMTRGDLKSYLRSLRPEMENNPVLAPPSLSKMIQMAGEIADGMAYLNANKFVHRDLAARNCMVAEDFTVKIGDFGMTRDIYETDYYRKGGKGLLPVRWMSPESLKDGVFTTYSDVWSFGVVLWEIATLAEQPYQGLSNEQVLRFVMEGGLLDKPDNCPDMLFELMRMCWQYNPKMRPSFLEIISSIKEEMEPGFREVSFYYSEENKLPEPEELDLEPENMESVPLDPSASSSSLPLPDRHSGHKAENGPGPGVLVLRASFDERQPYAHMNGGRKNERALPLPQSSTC

hIGF-1R-ECD-avi-his (human IGF-1R extracellular region) (human), sequence (P08069 other isoform, or with tags, fused parts or gaps limits assumed): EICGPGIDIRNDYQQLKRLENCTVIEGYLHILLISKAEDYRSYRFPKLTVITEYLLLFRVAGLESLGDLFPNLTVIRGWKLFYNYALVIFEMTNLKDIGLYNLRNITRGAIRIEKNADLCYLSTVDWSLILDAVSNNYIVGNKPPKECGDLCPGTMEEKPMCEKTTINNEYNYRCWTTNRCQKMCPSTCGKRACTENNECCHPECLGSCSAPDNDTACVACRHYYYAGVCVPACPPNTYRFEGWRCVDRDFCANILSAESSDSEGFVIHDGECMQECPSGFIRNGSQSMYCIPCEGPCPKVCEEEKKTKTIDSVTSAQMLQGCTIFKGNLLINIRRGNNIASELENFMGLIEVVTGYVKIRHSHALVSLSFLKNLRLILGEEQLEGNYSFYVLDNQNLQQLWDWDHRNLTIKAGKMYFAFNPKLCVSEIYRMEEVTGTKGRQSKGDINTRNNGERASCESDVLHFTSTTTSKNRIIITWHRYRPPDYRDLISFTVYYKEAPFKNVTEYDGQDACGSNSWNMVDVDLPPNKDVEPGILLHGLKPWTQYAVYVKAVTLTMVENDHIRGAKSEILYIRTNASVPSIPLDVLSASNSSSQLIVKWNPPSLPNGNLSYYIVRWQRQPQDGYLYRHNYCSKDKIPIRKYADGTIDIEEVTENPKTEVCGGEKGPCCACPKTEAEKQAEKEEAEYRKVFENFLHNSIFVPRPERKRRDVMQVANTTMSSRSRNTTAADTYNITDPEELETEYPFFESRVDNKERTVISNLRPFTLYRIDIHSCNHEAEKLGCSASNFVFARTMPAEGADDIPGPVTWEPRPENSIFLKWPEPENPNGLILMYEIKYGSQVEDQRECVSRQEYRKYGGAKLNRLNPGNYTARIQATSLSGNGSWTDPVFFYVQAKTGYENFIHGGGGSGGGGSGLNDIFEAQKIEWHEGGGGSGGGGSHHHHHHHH

| Substance | Kd [1] [nM] | koff [1] [s⁻¹] | kon [1] [M⁻¹ s⁻¹] | IC50 (nM), inhibition of IGF1-induced pAKT signaling in A549 cells [2] [nM] |
| --- | --- | --- | --- | --- |
| Tepezza (Horizon, US2022356257) (antibody) | 0.267 | 0.00109 | 4.08e+06 | – |
| VRDN-001 (Viridian, WO2023019171) (antibody) | 0.0175 | 1.47e-05 | 839000 | 0.716 |
